# Results from patent US20210130453A1 (AstraZeneca / MedImmune, published 2021).
# T1: recombinant human LIFR (human, UniProt P42702 45-833, limits assumed)
# T1 construct: also called hLIFR
# T1 sequence (looked up): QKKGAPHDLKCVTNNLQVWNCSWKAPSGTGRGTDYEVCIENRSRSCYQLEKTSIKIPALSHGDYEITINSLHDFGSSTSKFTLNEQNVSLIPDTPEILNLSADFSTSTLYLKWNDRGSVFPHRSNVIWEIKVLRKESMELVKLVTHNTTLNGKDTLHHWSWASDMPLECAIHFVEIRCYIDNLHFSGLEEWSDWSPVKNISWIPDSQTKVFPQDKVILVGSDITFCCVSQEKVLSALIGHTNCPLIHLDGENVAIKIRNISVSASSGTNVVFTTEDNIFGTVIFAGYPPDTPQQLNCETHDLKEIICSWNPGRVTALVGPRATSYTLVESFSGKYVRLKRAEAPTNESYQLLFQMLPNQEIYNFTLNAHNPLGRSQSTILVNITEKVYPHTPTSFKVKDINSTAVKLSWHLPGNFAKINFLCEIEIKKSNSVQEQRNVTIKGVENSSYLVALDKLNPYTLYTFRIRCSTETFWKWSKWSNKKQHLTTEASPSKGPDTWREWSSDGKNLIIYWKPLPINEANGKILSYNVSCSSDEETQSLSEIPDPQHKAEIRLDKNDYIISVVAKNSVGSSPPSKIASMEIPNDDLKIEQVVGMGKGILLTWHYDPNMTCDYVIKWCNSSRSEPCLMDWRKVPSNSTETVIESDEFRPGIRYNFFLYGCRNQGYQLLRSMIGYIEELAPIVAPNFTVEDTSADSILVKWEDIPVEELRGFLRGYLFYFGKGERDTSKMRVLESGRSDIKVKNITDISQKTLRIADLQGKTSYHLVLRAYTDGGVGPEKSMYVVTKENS
# T2: recombinant human gp130 (human, UniProt P40189 23-619, limits assumed)
# T2 sequence (looked up): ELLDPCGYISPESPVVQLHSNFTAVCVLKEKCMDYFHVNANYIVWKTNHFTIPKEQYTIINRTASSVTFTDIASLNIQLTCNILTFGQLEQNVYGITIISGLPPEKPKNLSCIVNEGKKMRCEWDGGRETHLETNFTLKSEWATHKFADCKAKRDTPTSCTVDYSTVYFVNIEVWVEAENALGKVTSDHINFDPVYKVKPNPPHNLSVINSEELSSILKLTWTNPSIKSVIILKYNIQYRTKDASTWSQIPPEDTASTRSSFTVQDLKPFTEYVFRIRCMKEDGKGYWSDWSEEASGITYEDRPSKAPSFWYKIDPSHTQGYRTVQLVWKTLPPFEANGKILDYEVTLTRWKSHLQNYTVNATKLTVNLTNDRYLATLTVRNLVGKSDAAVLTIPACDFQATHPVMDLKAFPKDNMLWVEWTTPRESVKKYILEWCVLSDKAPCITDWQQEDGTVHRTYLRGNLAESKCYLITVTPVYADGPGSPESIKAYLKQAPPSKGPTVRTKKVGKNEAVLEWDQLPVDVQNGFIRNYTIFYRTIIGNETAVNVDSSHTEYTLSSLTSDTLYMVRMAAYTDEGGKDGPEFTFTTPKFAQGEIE
# B1: h5D8 (humanized 5D8, H2L2) (antibody, V domains shown)
# VH: QVQLQESGGGLVKPGGSLRLSCAASGFTFSHAWMHWVRQAPGKGLEWVGQIKAKSDDYATYYAESVKGRFTISRDDSKNTLYLQMNSLKTEDTAVYYCTCWEWDLDFWGQGTMVTVSS
# VL: DIVMTQTPLSSPVTLGQPASISCRSSQSLLDSDGHTYLNWLQQRPGQPPRLLIYSVSNLESGVPDRFSGSGAGTDFTLKISRVEAEDVGVYYCMQATHAPPYTFGQGTKLEIK
# notes: Humanized by CDR grafting from rat 5D8; also called G (H2L2); H5D8-1 IgG
# B2: human LIF (source not stated) (ligand)
# chain: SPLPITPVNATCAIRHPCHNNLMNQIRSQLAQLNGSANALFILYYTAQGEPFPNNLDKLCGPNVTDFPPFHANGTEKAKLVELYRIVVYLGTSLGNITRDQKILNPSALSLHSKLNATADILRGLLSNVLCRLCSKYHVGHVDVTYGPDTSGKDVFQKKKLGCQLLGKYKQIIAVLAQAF
# notes: also called hLIF; endogenous LIF of U-251 cells
# How the values were obtained:
# [1] = biological target: T1, recombinant human LIFR; test: BLI (Octet RED96) control experiment, h5D8 on AHC sensors
# [2] = biological target: B2; test: cell-based or functional assay
# [3] = biological target: T3, human IL-6 (E. coli) (human, UniProt P05231 30-212, limits assumed); test: BLI (Octet), h5D8 amine-coupled to AR2G sensors, cytokine analyte; legend: ND = no binding
# T3 construct: also called huIL-6 (E. coli)
# T3 sequence (P05231 30-212 limits assumed): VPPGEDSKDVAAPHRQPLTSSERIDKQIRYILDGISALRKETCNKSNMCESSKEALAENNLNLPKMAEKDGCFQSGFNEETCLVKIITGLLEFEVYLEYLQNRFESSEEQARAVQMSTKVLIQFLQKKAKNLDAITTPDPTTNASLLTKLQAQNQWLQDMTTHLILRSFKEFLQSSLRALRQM
# Method: 9.0.0.26 as follows: Amine Reactive 2ndGeneration Biosensors (AR2G) were hydrated for a minimum of 15 minutes in water. […] Kinetics experiments were then performed with the following Dip and Read steps at 30° C., 1000 rpm: vi) 60 seconds Baseline in 1× kinetics buffer; vii) 180 seconds Association of appropriate serial dilutions of a cytokine in 1× kinetics buffer; viii) 300 seconds Dissociation in 1× kinetics buffer; ix) Three Regeneration/Neutralization cycles alternating between 10 mM glycine pH 2.0 and 1× kinetics buffer respectively (5 seconds in each for 3 cycles). Following regeneration, the biosensors were reused for subsequent binding analyses.
# [4] = biological target: T2, recombinant human gp130; test: ELISA: LIF pre-incubated with B09, added to a plate coated with gp130, detected through the antibody with peroxidase anti-rat IgG
binding result [1],"IC50 for biological inhibition (pSTAT3, U-251 cells, serum starved, endogenous LIF) [2] [picomolar]",binding result [3],binding result [4],Binder
no binding,490,no binding,–,B1
–,–,–,binds,B2
